Measured values reported in patent US20110166062A1 (INDIANA UNIVERSITY RESEARCH AND TECHNOLOGY, published 2011).
*1 amine or outer side, *2 acyl side, *3 side chain or, on linkers, in order; H or OH if unused. Bridges are numbered along the chain shown (N, C = ends). Primed or numbered codes have the meaning given here. Where no end group is shown, it is not given here. Side-chain parts run from the residue outwards. [ ]: non-standard residue; d: D form. The star is where a group is joined. Cys(PEG 40 kDa) = Cys with a 40 kDa PEG covalently attached to its side chain (alpha amino acetyl-capped, Ac); PEG 40 kDa″ = polyethylene glycol of 40 kDa covalently attached to the side chain; γGlu = O=C(O)[C@H](CCC(=O)[*:2])N[*:1]; Palmitoyl = CCCCCCCCCCCCCCCC(=O)*; Myristoyl = CCCCCCCCCCCCCC(=O)*; PEG = not defined here; Aib = CC(C)(N)C(=O)O

What was measured:
Test in all cases: cell-based or functional assay
[1] = target: glucagon receptor (UniProt P47871 26-477, limits assumed)
Target sequence in this assay (P47871 26-477 limits assumed): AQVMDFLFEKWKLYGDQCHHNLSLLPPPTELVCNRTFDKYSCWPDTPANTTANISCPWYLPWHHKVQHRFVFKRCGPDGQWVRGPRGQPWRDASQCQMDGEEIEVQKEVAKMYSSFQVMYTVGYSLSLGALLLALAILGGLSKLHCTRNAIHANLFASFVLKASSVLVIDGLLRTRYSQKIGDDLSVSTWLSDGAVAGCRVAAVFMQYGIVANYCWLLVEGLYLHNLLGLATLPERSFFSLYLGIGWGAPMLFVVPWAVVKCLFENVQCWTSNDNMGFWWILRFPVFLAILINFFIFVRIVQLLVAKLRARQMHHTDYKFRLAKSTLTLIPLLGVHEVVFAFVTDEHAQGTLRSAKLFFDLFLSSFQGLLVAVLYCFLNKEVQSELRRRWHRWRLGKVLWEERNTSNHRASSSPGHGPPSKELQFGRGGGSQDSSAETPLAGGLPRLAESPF

[2] = target: GLP-1 receptor (UniProt P43220 24-463, limits assumed)
[3] = target: T1, GIP receptor (UniProt P48546 22-466)
T1 sequence (looked up): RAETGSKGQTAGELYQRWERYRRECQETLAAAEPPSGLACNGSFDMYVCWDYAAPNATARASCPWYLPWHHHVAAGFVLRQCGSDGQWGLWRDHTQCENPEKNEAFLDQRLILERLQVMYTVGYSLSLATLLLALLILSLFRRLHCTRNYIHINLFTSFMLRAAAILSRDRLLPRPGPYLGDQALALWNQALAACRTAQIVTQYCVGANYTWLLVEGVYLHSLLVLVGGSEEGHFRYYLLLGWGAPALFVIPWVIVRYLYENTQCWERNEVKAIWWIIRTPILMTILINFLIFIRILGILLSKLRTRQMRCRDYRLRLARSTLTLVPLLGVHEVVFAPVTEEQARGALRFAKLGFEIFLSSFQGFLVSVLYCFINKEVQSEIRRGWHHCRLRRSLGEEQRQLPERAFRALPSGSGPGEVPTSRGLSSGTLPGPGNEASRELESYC

[4] = target: glucagon receptor (UniProt P47871 26-477, limits assumed); remark: listed apart in the source
Target sequence in this assay (P47871 26-477 limits assumed): as the sequence (P47871 26-477 limits assumed) above

[5] = target: GLP-1 receptor (UniProt P43220 24-463, limits assumed); remark: listed apart in the source
[6] = target: T2, GIP receptor (UniProt P48546 22-466); remark: listed apart in the source
T2 sequence (looked up): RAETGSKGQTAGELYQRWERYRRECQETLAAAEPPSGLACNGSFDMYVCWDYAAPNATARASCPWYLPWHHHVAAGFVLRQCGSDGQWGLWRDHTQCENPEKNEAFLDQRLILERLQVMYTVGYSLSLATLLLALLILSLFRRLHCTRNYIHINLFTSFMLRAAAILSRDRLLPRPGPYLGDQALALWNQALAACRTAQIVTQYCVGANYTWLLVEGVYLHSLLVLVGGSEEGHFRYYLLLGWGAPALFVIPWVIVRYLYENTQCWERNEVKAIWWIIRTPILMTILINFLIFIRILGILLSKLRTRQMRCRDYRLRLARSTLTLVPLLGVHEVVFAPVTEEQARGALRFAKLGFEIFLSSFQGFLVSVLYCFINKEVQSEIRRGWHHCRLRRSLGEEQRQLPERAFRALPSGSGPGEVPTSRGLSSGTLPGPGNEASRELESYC

| Binder | EC50, nM; Glucagon Receptor [1] [nM] | relative activity; Glucagon Receptor [1] [%] | EC50, nM; GLP-1 Receptor [2] [nM] | relative activity; GLP-1 Receptor [2] [%] | EC50, nM; GIP Receptor [3] [nM] | relative activity; GIP Receptor [3] [%] | EC50 [4] [nM] | relative activity [4] [%] | EC50 [5] [nM] | relative activity [5] [%] | EC50 [6] [nM] | relative activity [6] [%] |
| --- | --- | --- | --- | --- | --- | --- | --- | --- | --- | --- | --- | --- |
| Y[Aib]QGTFISDYSIYLDKQAA[Aib]EFVNWLLAGGPSSGAPPPSK(Palmitoyl)-NH2 (N-terminus assumed; SMILES CCCCCCCCCCCCCCCC(=O)NCCCC[C@H](NC(=O)[C@H](CO)NC(=O)[C@@H]1CCCN1C(=O)[C@@H]1CCCN1C(=O)[C@@H]1CCCN1C(=O)[C@H](C)NC(=O)CNC(=O)[C@H](CO)NC(=O)[C@H](CO)NC(=O)[C@@H]1CCCN1C(=O)CNC(=O)CNC(=O)[C@H](C)NC(=O)[C@H](CC(C)C)NC(=O)[C@H](CC(C)C)NC(=O)[C@H](Cc1c[nH]c2ccccc12)NC(=O)[C@H](CC(N)=O)NC(=O)[C@@H](NC(=O)[C@H](Cc1ccccc1)NC(=O)[C@H](CCC(=O)O)NC(=O)C(C)(C)NC(=O)[C@H](C)NC(=O)[C@H](C)NC(=O)[C@H](CCC(N)=O)NC(=O)[C@H](CCCCN)NC(=O)[C@H](CC(=O)O)NC(=O)[C@H](CC(C)C)NC(=O)[C@H](Cc1ccc(O)cc1)NC(=O)[C@@H](NC(=O)[C@H](CO)NC(=O)[C@H](Cc1ccc(O)cc1)NC(=O)[C@H](CC(=O)O)NC(=O)[C@H](CO)NC(=O)[C@@H](NC(=O)[C@H](Cc1ccccc1)NC(=O)[C@@H](NC(=O)CNC(=O)[C@H](CCC(N)=O)NC(=O)C(C)(C)NC(=O)[C@@H](N)Cc1ccc(O)cc1)[C@@H](C)O)[C@@H](C)CC)[C@@H](C)CC)C(C)C)C(N)=O) [mt-358] | 0.0087 | 1270 | 0.083 | 13 | 0.0045 | 306 |  |  |  |  |  |  |
| Y[Aib]QGTFTSDYSIYLD[Aib]QAAKEFVNWLLAGGPSSGAPPPSC-NH2 (N-terminus assumed; SMILES CC[C@H](C)[C@H](NC(=O)[C@H](CO)NC(=O)[C@H](Cc1ccc(O)cc1)NC(=O)[C@H](CC(=O)O)NC(=O)[C@H](CO)NC(=O)[C@@H](NC(=O)[C@H](Cc1ccccc1)NC(=O)[C@@H](NC(=O)CNC(=O)[C@H](CCC(N)=O)NC(=O)C(C)(C)NC(=O)[C@@H](N)Cc1ccc(O)cc1)[C@@H](C)O)[C@@H](C)O)C(=O)N[C@@H](Cc1ccc(O)cc1)C(=O)N[C@@H](CC(C)C)C(=O)N[C@@H](CC(=O)O)C(=O)NC(C)(C)C(=O)N[C@@H](CCC(N)=O)C(=O)N[C@@H](C)C(=O)N[C@@H](C)C(=O)N[C@@H](CCCCN)C(=O)N[C@@H](CCC(=O)O)C(=O)N[C@@H](Cc1ccccc1)C(=O)N[C@H](C(=O)N[C@@H](CC(N)=O)C(=O)N[C@@H](Cc1c[nH]c2ccccc12)C(=O)N[C@@H](CC(C)C)C(=O)N[C@@H](CC(C)C)C(=O)N[C@@H](C)C(=O)NCC(=O)NCC(=O)N1CCC[C@H]1C(=O)N[C@@H](CO)C(=O)N[C@@H](CO)C(=O)NCC(=O)N[C@@H](C)C(=O)N1CCC[C@H]1C(=O)N1CCC[C@H]1C(=O)N1CCC[C@H]1C(=O)N[C@@H](CO)C(=O)N[C@@H](CS)C(N)=O)C(C)C) [mt-241] |  |  |  |  |  |  | 2.84 | 3.73 | 0.023 | 130 | 0.252 | 4.37 |
| Y[Aib]QGTFTSDYSIYLD[Aib]QAAKEFVNWLLAGGPSSGAPPPSC(PEG 40 kDa″)-NH2 [mt-248] |  |  |  |  |  |  | 16.7 | 0.37 | 0.103 | 9.71 | 3.23 | 0.53 |
| Y[Aib]EGTFTSDYSIYLDKQAA[Aib]EFVNWLLAGGPSSGAPPPSK([γGlu-γGlu-Palmitoyl])-NH2 [mt-367] | 0.82 |  | 0.0039 |  | 0.0014 |  |  |  |  |  |  |  |
| Y[Aib]EGTFTSDYSIYLDEQAAKEFVNWLLAGGPSSGAPPPSC(PEG)-NH2 (lactam 16-20; reading uncertain; also: PEG on Cys40 via thioether from haloacetyl) [mt-294] | 230 | 0.01 | 0.0608 | 12.7 | 0.373 | 2.95 |  |  |  |  |  |  |
| Y[Aib]EGTFTSDYSIYLDKQAA[Aib]EFVNWLLAGGPSSGAPPPSK(Myristoyl)C-NH2 (also: homodimer: two monomers linked by a disulfide bond between their C-terminal Cys41 residues) [mt-354] | 2.61 | 1.45 | 0.0088 | 137 | 0.0046 | 91.7 |  |  |  |  |  |  |
| Y[Aib]QGTFTSDYSIYLD[Aib]QAA[Aib]EFVNWLLAGGPSSGAPPPSC-NH2 (N-terminus assumed; SMILES CC[C@H](C)[C@H](NC(=O)[C@H](CO)NC(=O)[C@H](Cc1ccc(O)cc1)NC(=O)[C@H](CC(=O)O)NC(=O)[C@H](CO)NC(=O)[C@@H](NC(=O)[C@H](Cc1ccccc1)NC(=O)[C@@H](NC(=O)CNC(=O)[C@H](CCC(N)=O)NC(=O)C(C)(C)NC(=O)[C@@H](N)Cc1ccc(O)cc1)[C@@H](C)O)[C@@H](C)O)C(=O)N[C@@H](Cc1ccc(O)cc1)C(=O)N[C@@H](CC(C)C)C(=O)N[C@@H](CC(=O)O)C(=O)NC(C)(C)C(=O)N[C@@H](CCC(N)=O)C(=O)N[C@@H](C)C(=O)N[C@@H](C)C(=O)NC(C)(C)C(=O)N[C@@H](CCC(=O)O)C(=O)N[C@@H](Cc1ccccc1)C(=O)N[C@H](C(=O)N[C@@H](CC(N)=O)C(=O)N[C@@H](Cc1c[nH]c2ccccc12)C(=O)N[C@@H](CC(C)C)C(=O)N[C@@H](CC(C)C)C(=O)N[C@@H](C)C(=O)NCC(=O)NCC(=O)N1CCC[C@H]1C(=O)N[C@@H](CO)C(=O)N[C@@H](CO)C(=O)NCC(=O)N[C@@H](C)C(=O)N1CCC[C@H]1C(=O)N1CCC[C@H]1C(=O)N1CCC[C@H]1C(=O)N[C@@H](CO)C(=O)N[C@@H](CS)C(N)=O)C(C)C) [mt-250] |  |  |  |  |  |  | 0.667 | 6.3 | 0.033 | 63.6 | 0.062 | 30.6 |
| Y[Aib]QGTFTSDYSIYLDEQAAKEFVNWLLAGGPSSGAPPPSK([Ala-Cys(PEG 40 kDa)-Ac])-NH2 (lactam 16-20) [mt-225] | 2.71 |  | 0.098 |  | 1.9 |  |  |  |  |  |  |  |
| Y[Aib]QGTFTSDYSIYLDEQAA[Aib]EFVNWLLAGGPSSGAPPPSC-NH2 (N-terminus assumed; SMILES CC[C@H](C)[C@H](NC(=O)[C@H](CO)NC(=O)[C@H](Cc1ccc(O)cc1)NC(=O)[C@H](CC(=O)O)NC(=O)[C@H](CO)NC(=O)[C@@H](NC(=O)[C@H](Cc1ccccc1)NC(=O)[C@@H](NC(=O)CNC(=O)[C@H](CCC(N)=O)NC(=O)C(C)(C)NC(=O)[C@@H](N)Cc1ccc(O)cc1)[C@@H](C)O)[C@@H](C)O)C(=O)N[C@@H](Cc1ccc(O)cc1)C(=O)N[C@@H](CC(C)C)C(=O)N[C@@H](CC(=O)O)C(=O)N[C@@H](CCC(=O)O)C(=O)N[C@@H](CCC(N)=O)C(=O)N[C@@H](C)C(=O)N[C@@H](C)C(=O)NC(C)(C)C(=O)N[C@@H](CCC(=O)O)C(=O)N[C@@H](Cc1ccccc1)C(=O)N[C@H](C(=O)N[C@@H](CC(N)=O)C(=O)N[C@@H](Cc1c[nH]c2ccccc12)C(=O)N[C@@H](CC(C)C)C(=O)N[C@@H](CC(C)C)C(=O)N[C@@H](C)C(=O)NCC(=O)NCC(=O)N1CCC[C@H]1C(=O)N[C@@H](CO)C(=O)N[C@@H](CO)C(=O)NCC(=O)N[C@@H](C)C(=O)N1CCC[C@H]1C(=O)N1CCC[C@H]1C(=O)N1CCC[C@H]1C(=O)N[C@@H](CO)C(=O)N[C@@H](CS)C(N)=O)C(C)C) [mt-251] |  |  |  |  |  |  | 2.76 | 1.52 | 0.015 | 140 | 0.033 | 57.6 |
